This assay has as its target human B7H3 ECD-His (human) (UniProt Q5ZPR3). Put plainly: ForteBio BLI, antibody on AHQ sensor, 60 nM antigen, 1:1 model.

One substance from patent US20250011430A1 can be followed below.

In general, Kd refers to the constant that tells how readily two partners part at equilibrium.

Regarding Enoblituzumab (antibody), the Kd amounted to 0.773 nM.
